Test results: publication PMC8910226

Target: F-actin (phalloidin-stabilized) (UniProt P68139)
Experiment: co-sedimentation; S1 fixed at 1.5 μM, phalloidin-stabilized F-actin 0-4 μM; rigor conditions (no nucleotide); 100 mM NaCl, 200 mM sodium phosphate pH 7, 5 mM MgCl2, 4 mM DTT; 15 min at 4 °C, 70,000 RPM 60 min 4 °C; SDS-PAGE densitometry of pellet, hyperbolic fit; Kd = F-actin concentration at half Bmax; N = 3

Kd [µM]	Substance
1.26	control myosin subfragment-1 (S1) motor domain, Drosophila indirect flight muscle myosin (domain or fragment)
1.1	R369H myosin subfragment-1 (S1) motor domain, Drosophila indirect flight muscle myosin (domain or fragment)
